Assay results as given in paper PMC5835413 (Journal of structural biology, 2017).

B2: Fluorescent p190-PH: CFP fused to the N-terminus of the p190 PH domain (domain or fragment)
chain: EKNQKWLEILNKIENKTYTKLKNGHVFRKQALMSEERTLLYDGLVYWKTATGRFKDILALLLTDVLLFLQEKDQKYIFAAVDQKPSVISLQKLIAREVANEERGMFLISASSAGPEMYEIHTNSKEERNNWMRRIQQAVESCPEEK

Experiments:
[1] = target: Non-tagged RhoA bound to GTPγS (human, UniProt P61586 1-193); experiment: ITC
[2] = target: Non-tagged Rac1 bound to GTPγS (human, UniProt P63000 1-192); experiment: FRET or BRET
GST-Rac2 = GST-Rac2 (human, UniProt P15153 1-192); experiment: pull-down
GST-Rac3 = GST-Rac3 (human, UniProt P60763 1-192); experiment: pull-down
GST-RhoB = GST-RhoB (human, UniProt P62745 1-196); experiment: pull-down
GST-RhoC = GST-RhoC (human, UniProt P08134 1-193); experiment: pull-down
[3] = target: B2; experiment: FRET or BRET

Sequence of Non-tagged RhoA bound to GTPγS (P61586 whole entry): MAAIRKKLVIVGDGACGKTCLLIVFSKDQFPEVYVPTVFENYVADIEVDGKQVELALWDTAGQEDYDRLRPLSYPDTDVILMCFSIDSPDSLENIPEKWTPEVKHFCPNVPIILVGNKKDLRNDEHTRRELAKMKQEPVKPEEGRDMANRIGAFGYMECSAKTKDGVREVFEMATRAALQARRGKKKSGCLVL
Sequence of GST-RhoC (P08134 whole entry): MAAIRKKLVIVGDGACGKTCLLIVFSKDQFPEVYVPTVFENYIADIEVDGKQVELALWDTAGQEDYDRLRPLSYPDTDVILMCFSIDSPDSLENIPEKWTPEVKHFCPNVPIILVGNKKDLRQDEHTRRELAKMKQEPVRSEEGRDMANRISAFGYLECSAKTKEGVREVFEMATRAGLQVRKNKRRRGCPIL
Sequence of GST-RhoB (P62745 whole entry): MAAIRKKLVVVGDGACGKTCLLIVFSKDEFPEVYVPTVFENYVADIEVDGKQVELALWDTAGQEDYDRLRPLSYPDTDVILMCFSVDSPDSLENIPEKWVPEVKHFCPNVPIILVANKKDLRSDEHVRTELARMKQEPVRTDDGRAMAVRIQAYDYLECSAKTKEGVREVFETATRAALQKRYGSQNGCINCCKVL

B1: PH domain of human PDZRhoGEF (residues 927-1085) with C-terminal His6 (domain or fragment, UniProt O15085 927-1085, looked up)
chain: TENRHRLEGYQKRLDATALERASNPLAAEFKSLDLTTRKMIHEGPLTWRISKDKTLDLHVLLLEDLLVLLQKQDEKLLLKCHSKTAVGSSDSKQTFSPVLKLNAVLIRSVATDKRAFFIICTSKLGPPQIYELVALTSSDKNTWMELLEEAVRNATRHP
[1]
  Kd: 1.2 µM

## B2
[2]
  Kd: ~20 µM

B3: PH domain of human p190RhoGEF (residues 1049-1194) with C-terminal His6 (domain or fragment, UniProt Q8N1W1 1049-1194, looked up)
chain: EKNQKWLEILNKIENKTYTKLKNGHVFRKQALMSEERTLLYDGLVYWKTATGRFKDILALLLTDVLLFLQEKDQKYIFAAVDQKPSVISLQKLIAREVANEERGMFLISASSAGPEMYEIHTNSKEERNNWMRRIQQAVESCPEEK
GST-Rac2
  binding result: binds
GST-Rac3
  binding result: binds
GST-RhoB
  binding result: binds
GST-RhoC
  binding result: binds
[1]
  Kd: ~2 µM

B4: Non-tagged mutant (E40D/V43S/A56G) RhoA bound to GTPγS (natural protein)
chain: not shown
[3]
  fold reduction in affinity against wild-type RhoA: 2 fold

B5: PH domain of AKAP-Lbc (domain or fragment, UniProt Q12802 2192-2333, looked up)
chain: VASYEKKVRLNEIYTKTDSKSIMRMKSGQMFAKEDLKRKKLVRDGSVFLKNAAGRLKEVQAVLLTDILVFLQEKDQKYIFASLDQKSTVISLKKLIVREVAHEEKGLFLISMGMTDPEMVEVHASSKEERNSWIQIIQDTIN
[1]
  Kd: 3.1 µM

B6: PH domain of p114RhoGEF (domain or fragment, UniProt Q6P9R4 723-825, looked up)
chain: QLHLEGALCWKSTSGRLKDVLAVLLTDVLLLLQEKDQKYVFASVDSKPPVISLQKLIVREVANEEKAMFLISASMQGPEMYEMYTSSKEDRNIWMAHIRRAVE
[1]
  Kd: 13 µM
